Experimental data as given in patent US20190248900A1.

Legend:
[1] = molecular target: human PD-1 (NM_005018.2) over-expressed on cells (human) (UniProt Q15116); experiment: flow cytometry, 18 nM, panel 49A2
[2] = molecular target: human PD-1 (NM_005018.2) over-expressed on cells (human) (UniProt Q15116); experiment: flow cytometry, 18 nM, panel 45D6
ITGA6-Fc [3] = molecular target: T1, ITGA6-Fc; experiment: ELISA, 1 ug/ml
T1 sequence (P23229 whole entry, species assumed, looked up): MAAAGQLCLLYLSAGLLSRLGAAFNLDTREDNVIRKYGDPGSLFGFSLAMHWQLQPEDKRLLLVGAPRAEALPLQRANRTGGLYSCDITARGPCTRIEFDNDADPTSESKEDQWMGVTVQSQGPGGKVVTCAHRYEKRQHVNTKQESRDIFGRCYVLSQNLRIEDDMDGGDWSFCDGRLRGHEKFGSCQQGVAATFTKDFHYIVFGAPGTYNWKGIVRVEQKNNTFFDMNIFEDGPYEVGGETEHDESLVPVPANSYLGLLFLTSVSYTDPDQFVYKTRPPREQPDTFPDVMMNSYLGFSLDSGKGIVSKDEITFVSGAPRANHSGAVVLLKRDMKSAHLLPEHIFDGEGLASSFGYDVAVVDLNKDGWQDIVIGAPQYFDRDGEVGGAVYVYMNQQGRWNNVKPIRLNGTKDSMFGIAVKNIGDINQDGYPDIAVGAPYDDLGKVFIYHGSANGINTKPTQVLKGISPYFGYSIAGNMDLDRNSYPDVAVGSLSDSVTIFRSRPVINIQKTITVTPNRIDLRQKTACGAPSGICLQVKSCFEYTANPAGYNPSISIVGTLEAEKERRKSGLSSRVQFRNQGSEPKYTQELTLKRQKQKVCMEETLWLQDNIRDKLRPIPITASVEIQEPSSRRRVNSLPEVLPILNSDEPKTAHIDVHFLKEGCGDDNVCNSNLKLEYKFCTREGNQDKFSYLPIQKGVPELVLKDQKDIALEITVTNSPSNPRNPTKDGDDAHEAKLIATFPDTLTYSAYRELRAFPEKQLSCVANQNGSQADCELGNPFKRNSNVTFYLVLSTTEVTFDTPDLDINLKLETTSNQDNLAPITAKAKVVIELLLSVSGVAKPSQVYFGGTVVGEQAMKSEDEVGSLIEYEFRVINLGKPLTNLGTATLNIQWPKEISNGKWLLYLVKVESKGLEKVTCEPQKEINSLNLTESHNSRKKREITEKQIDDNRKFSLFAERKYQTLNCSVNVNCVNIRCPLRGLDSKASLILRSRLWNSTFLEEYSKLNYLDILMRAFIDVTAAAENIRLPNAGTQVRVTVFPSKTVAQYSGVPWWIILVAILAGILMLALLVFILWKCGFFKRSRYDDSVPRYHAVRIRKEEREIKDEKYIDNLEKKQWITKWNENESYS

ITGA6-Fc [4] = molecular target: T1, ITGA6-Fc; experiment: ELISA (control row)

Sequence of human PD-1 (NM_005018.2) over-expressed on cells (human) (Q15116 25-288): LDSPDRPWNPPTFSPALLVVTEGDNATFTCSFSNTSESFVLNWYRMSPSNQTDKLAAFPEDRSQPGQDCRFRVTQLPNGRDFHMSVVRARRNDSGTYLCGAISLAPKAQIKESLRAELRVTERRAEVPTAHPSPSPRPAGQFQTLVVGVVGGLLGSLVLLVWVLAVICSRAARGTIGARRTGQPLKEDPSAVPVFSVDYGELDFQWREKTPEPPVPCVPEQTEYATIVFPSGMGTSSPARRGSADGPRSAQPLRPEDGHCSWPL
Sequence of Pembrolizumab (antibody) (VH): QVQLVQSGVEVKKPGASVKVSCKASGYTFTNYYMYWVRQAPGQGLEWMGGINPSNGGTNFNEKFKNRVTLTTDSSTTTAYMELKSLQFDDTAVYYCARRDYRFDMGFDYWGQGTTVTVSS
Sequence of Pembrolizumab (antibody) (VL): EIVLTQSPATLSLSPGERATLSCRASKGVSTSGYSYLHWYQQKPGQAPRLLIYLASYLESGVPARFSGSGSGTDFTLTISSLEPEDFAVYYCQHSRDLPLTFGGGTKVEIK

IgG (antibody) was tested, and the Geometric Mean [1] was 50 and the Geometric Mean [2] was 50.
Substance Nivolumab (antibody) has an OD490 (ITGA6-Fc [3]) of 0.3 and an OD490 (ITGA6-Fc [4]) of 0.3.
Substance Pembrolizumab (antibody) has an OD490 (ITGA6-Fc [3]) of 0.1 and an OD490 (ITGA6-Fc [4]) of 0.1.
